The record followed here is patent US20160130336A1.

The assay addresses mVEGF (mouse (from the prefix m only; not spelled out in the filing)) (UniProt Q00731). The assay can be described thus: BIAcore (SPR), column mVEGF. (Surface plasmon resonance follows binding to a sensor surface in real time, without labels.)

Sequence of mVEGF (mouse (from the prefix m only; not spelled out in the filing)) (Q00731 other isoform, or with tags, fused parts or gaps limits assumed): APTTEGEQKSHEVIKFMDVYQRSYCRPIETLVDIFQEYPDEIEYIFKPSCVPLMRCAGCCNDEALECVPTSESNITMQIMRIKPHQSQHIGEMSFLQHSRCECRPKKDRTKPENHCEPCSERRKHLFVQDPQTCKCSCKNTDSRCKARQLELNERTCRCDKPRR

The substance Avastin® (bevacizumab) (antibody) registered a Kd of 6.88 nM.

As a reminder, the Kd is a measure of binding affinity in units of concentration.
